According to article PMC8005036 (Vaccines, 2021):

Biological target: the molecule itself
Test: negative-stain transmission elect

B1: LS-SpyTag (Aquifex aeolicus lumazine synthase multimeric protein scaffold particle with SpyTag) (other)
chain: MQIYEGKLTAEGLRFGIVASRFNHALVDRLVEGAIDAIVRHGGREEDITLVRVPGSWEIPVAAGELARKEDIDAVIAIGVLIRGATPHFDYIASEVSKGLANLSLELRKPITFGVITADTLEQAIERAGTKHGNKGWEAALSAIEMANLFKSLRGGGGSGGGGSGGGGSAHIVMVDAYKPTK
notes: also called LS-ST; LS-MPSPs; copies: 60
- binding result: binds
